{"source": "patent US20190358326A1", "test_in_all_cases": "virus attachment assay at 4° C. on transfected L929 cells, immunostaining, Mander's co-localization coefficient", "key": {"[1]": {"molecular_target": "human P-selectin glycoprotein ligand-1 (hPSGL1) on L929 cells (human) (UniProt Q14242)", "sequence (Q14242 42-412)": "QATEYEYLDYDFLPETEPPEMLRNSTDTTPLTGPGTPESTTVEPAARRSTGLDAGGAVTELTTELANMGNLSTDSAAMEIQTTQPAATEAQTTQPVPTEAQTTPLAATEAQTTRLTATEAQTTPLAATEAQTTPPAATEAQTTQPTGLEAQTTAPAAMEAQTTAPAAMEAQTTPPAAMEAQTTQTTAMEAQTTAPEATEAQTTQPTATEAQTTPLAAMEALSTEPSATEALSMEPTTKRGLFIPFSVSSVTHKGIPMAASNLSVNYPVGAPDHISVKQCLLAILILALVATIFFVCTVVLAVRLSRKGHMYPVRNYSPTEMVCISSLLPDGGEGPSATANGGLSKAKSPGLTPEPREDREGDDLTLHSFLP"}, "[2]": {"molecular_target": "human scavenger receptor class B member 2 (hSCARB2) on L929 cells (human) (UniProt Q14108)", "sequence (Q14108 whole entry)": "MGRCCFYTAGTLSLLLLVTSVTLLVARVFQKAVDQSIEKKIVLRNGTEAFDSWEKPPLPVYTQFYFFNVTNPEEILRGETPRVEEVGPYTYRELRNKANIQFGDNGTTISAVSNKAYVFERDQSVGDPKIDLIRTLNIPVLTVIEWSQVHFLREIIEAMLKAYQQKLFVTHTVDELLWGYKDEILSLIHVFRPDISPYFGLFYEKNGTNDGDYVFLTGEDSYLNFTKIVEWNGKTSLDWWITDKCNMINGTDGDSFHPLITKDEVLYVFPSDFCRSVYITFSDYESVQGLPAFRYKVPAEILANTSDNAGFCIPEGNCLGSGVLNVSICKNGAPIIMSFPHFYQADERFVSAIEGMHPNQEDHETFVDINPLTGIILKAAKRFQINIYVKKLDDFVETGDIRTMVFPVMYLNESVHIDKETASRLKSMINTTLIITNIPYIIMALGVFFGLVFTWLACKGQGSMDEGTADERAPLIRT"}, "[3]": {"molecular_target": "human tryptophanyl-tRNA synthetase (hWARS) on cells (human) (UniProt P23381)", "sequence (P23381 2-471)": "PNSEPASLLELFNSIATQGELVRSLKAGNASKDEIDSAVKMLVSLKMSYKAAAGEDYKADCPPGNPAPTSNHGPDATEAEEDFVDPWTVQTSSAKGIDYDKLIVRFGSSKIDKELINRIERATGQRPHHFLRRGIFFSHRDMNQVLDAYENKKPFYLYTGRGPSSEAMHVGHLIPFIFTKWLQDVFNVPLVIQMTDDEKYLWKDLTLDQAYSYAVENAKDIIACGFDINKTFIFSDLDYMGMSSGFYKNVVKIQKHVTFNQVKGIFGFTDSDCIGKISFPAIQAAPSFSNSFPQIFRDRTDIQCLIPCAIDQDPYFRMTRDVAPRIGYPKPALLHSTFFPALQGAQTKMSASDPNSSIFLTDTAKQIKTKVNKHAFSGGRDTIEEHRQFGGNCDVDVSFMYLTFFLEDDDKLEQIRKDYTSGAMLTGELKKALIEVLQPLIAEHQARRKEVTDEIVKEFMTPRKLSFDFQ"}}, "data": [{"substance": "enterovirus 71 (EV-A71) virus", "values": [{"measurement": "co-localization coefficient (R)", "setting": "[1]", "result": 0.501}, {"measurement": "co-localization coefficient (R)", "setting": "[2]", "result": 0.432}, {"measurement": "co-localization coefficient (R)", "setting": "[3]", "result": 0.655}]}]}
